Measurements: the supplement of paper PMC9170038

Tested on: MS2 coat protein
Test: apparent KD of MS2 coat protein; designed switch direction (-1 OFF switch, 1 ON switch): 1; higher = weaker reporter binding
Method in brief: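 The apparent KD reported per design is the median over clusters of curve fits to normalised cluster fluorescence. The RNA switches were transcribed on Illumina chips by stalled E. coli RNA polymerase. SNAP-549-labelled MS2 coat protein was titrated from 0.7 or 1.5 nM, doubling up to 3 µM, in Tris-HCl pH 7.5 buffer containing KCl, MgCl2, BSA, DTT, tRNA and Tween-20, with no input, 200 uM small-molecule ligand, or an oligonucleotide input.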

[1] = Eterna round: R95, input ligand: FMN 200 uM
[2] = Eterna round: R95, input ligand: microRNA oligo, concentration not stated
[3] = Eterna round: R95, input ligand: none
[4] = input ligand: microRNA oligo, concentration not stated

Row | Sequence | apparent KD of MS2 coat protein [1] | apparent KD of MS2 coat protein [2] | apparent KD of MS2 coat protein [3] | apparent KD of MS2 coat protein (input ligand: FMN 200 uM) | apparent KD of MS2 coat protein [4] | apparent KD of MS2 coat protein (input ligand: none)
1 | GGAGAGAGAGCGGAGGAUAUUCAAGGAGAGACAUGAGGAUCACCCAUGUAAGAGAGAGAGGAGAGGGAGAAGGCUGAGAGAGAGG [Altered State 2-11 - Jieux - Same State 2] (puzzle: Same State 2) | 25.1 nM | 25.9 nM | 27.2 nM | – | – | –
2 | GGUGCCAAUAAAGCCUACAUGAGGAUCACCCAUGUAUGUAGGCAGGAUAUCGUUUGCAAAGCAAACGAGAAGGGCCUAGGCACC [Mat - Same State NG 3 - JL Mod - D61] (Eterna round: R96, puzzle: Same State NG 3) | – | – | – | 18.6 nM | 21.4 nM | 31.5 nM
3 | AUAAAACAUGAGGAUCACCCAUGUCAACAAAGUCUAGGAUAUGGGCAAAUAAAAUAAGAACCAGAAGGCGAAUAAU [salish99_ss1_r3_051] (puzzle: Same State 1) | 167 nM | 177 nM | 178 nM | – | – | –
4 | AGAAUGCACAUGAGGAUCACCCAUGUACCCGGCUGGCAUUUGCAGGAUAUGCCGCGGCGAGCCCAGCAGAAGGGCAAGUGCUAA [Eternabot solution 4] (Eterna round: R96, puzzle: Same State NG 3) | – | – | – | 25.8 nM | 19 nM | 26.9 nM
5 | UGUCCAGCCUGAGCUGGACAAAAGCAUGUACAUGAGGAUCACCCAUGUUCAUGUACAAGCUUUUUGCUCGUCUUAAG [salish99_208a_r3_032] (puzzle: Sensor for hsa-mir-208a) | 547 nM | 13.9 nM | 533 nM | – | – | –
6 | GGUGCCAAAUAAGCCUACAUGAGGAUCACCCAUGUAUGUAGGUAGGAUAUCGUUUGCAAAGCAAACGAGAAGGGCCUAGGCACC [Mat - Same State NG 3 - JL Mod - D59] (Eterna round: R96, puzzle: Same State NG 3) | – | – | – | 26.1 nM | 39.3 nM | 50.7 nM
7 | GUGGUCAGACAUGAGGAUCACCCAUGUGGAAUAAAUAAGGAAAAGGAUAUUCAAUAUAGGAUAUAGAAGAAGGUUUGGUUGGUG (Eterna round: R96, puzzle: Same State NG 3) | – | – | – | – | 73.5 nM | –
8 | CCGUAAAAUGGAGGAUAUGGAGCCUUAUUGGCUCCAGAAGGUCAUAAAACAUGAGGAUCACCCAUGUCGGCGGUCAAUAGACCG [Eli NG1ss - 78] (Eterna round: R96, puzzle: Same State NG 1) | – | – | – | – | 31.5 nM | –
9 | GGUCCAGCCUGAGCUGGACAAAAGCAUGUACAUGAGGAUCACCCAUGUCAUGUACAAGCUUUUUGCUCGUUUUAAAA [JL mod - D87 - 14] (puzzle: Sensor for hsa-mir-208a) | 527 nM | 14.5 nM | 576 nM | – | – | –
10 | AACAGUCGGCGAGGAUAUGGACGUACAGGUUUGCCUGUGCGGCUCACAUGAGGAUCACCCAUGUUCUAGAAGGCGCCACUGAGA [Lausrein] (Eterna round: R96, puzzle: Same State NG 2) | – | – | – | 19.9 nM | 48.8 nM | 81.2 nM
11 | AUUAAUUAAUUAAUACAUGAGGAUCACCCAUGUAAUAAGAUCAAGGAUAUCAGCUCGAUUAGAGCUGAGAAGGUGAUCACAUGU [SSNG3/17-B2] (Eterna round: R96, puzzle: Same State NG 3) | – | – | – | – | 509 nM | –
12 | GUUAGGAAUCUAGCGAACAUGAGGAUCACCCAUGUUAGUGGGAAGGAUAUGGUACAGAAACUGUACCAGAAGGUCUUAUUGUUU [Omei SS(NG) 3 AV11] (Eterna round: R96, puzzle: Same State NG 3) | – | – | – | – | 332 nM | –
13 | CUCAAAACAAGCUGCAGUGUUCGUCUUUAACAUGAGGAUCACCCAUGUAGUAGCCCGGUGGAAGCGCUCGGGCCACC [Antetera] (puzzle: Sensor for hsa-mir-208a) | 44.3 nM | 27.8 nM | 43.9 nM | – | – | –
14 | GUUACAUGAGGAUCACCCAUGUAUGUGUGGGAGUAAGUGUCUUAGGAUAUCUGUUAUUAAAUUUAAGAGAAGGAAGAUUGUUGU [JMF's solution 36] (Eterna round: R96, puzzle: Same State NG 3) | – | – | – | 104 nM | 64.1 nM | 92.7 nM
15 | GGAGCCGGCCUAGGAUAUUUCAUAUUAAAACAUGAGGAUCACCCAUGUAGGCCAGAAGGCCUUGGGAAGAAGGAGGUCGGCUCC [Loop Effect - U25,U26] (Eterna round: R96, puzzle: Same State NG 2) | – | – | – | 15.2 nM | 50.7 nM | 87.8 nM
16 | CGCCAGAGAACAGGAUAUGGGCCGCGGCCUAUGGGCUGCUAACUCACAUGAGGAUCACCCAUGUCCCAGAAGGGUUCCUGGCGG [Xediat] (Eterna round: R96, puzzle: Same State NG 2) | – | – | – | 472 nM | 23.1 nM | 262 nM

Row | Sequence | apparent KD of MS2 coat protein [1] | apparent KD of MS2 coat protein [2] | apparent KD of MS2 coat protein [3] | apparent KD of MS2 coat protein (input ligand: FMN 200 uM) | apparent KD of MS2 coat protein [4] | apparent KD of MS2 coat protein (input ligand: none)
17 | CUGAGAAGUCAAGGAUAUCACGUCGAUUAGACGUGAGAAGGUGAUCAUUACAUGAGGAUCACCCAUGUGUUACAUGGAGCUCAG [Brourd's SSNG1/1-A2 mod 6] (Eterna round: R96, puzzle: Same State NG 1) | – | – | – | 703 nM | 124 nM | 938 nM
18 | AGGCUCAGACGAGGAUAUGGUCAUGGCGCUUCGGCGCAUACAUGAGGAUCACCCAUGUAGGGUGAUCAGAAGGCGUCUGAGCCA [SSNG2/9-A1] (Eterna round: R96, puzzle: Same State NG 2) | – | – | – | 76.8 nM | 255 nM | 365 nM
19 | ACAUGAGACGUAGGAUAUAUUGUACCUACAUGUGACAUGAGGAUCACCCAUGUGGUAAGUAUGACAUAGAAGGACGAGAUAUGU [Equivalance 94 - Jieux - Same State NG 2] (Eterna round: R96, puzzle: Same State NG 2) | – | – | – | 48.6 nM | 49.7 nM | 64.3 nM
20 | AUUAUUAAUGCAGGAUAUGAAUAACAUGAGGAUCACCCAUGUGGUGUUGUGAGUAAGGAGAGAGAUCAGAAGGGCAUUUUUUUU [JMF's solution 4] (Eterna round: R96, puzzle: Same State NG 2) | – | – | – | 349 nM | 225 nM | 258 nM
21 | GGUGGGUUGCUACCGGCACAUGAGGAUCACCCAUGUUUUGGGAAGGAUAUGGUACCUAUUUGGUACCAGAAGGUCCCGUUGGUG [salish99_SSNG3_r04_708] (Eterna round: R96, puzzle: Same State NG 3) | – | – | – | – | 176 nM | –
22 | AGGGAGGAUGCAGGAUAUACAAGACAUGAGGAUCACCCAUGUACCUUGUGGAGAAGAAAGGAGAGGUAGAAGGGUAGUGAGGAA [Default title] (Eterna round: R96, puzzle: Same State NG 2) | – | – | – | 11.7 nM | 13 nM | 16.4 nM
23 | GCUAGAAUUAAUGCUAACAUGAGGAUCACCCAUGUAUGUUGGCAGGAUAUCGUUUGCAAAGCAAACGAGAAGGGCCAUACUAGC [Mat - Same State NG 3 - JL Mod - D25] (Eterna round: R96, puzzle: Same State NG 3) | – | – | – | 8.26 nM | 27.3 nM | 21.3 nM
24 | CAUCAUGCGUCUAAGGAUAUGUCUCACAAGACAUGAGGAUCACCCAUGUAGAAUAAAUAAAUGAUGCAGAAGGUGGAGCGCAUGC [Erzausis] (Eterna round: R96, puzzle: Same State 2) | – | – | – | – | 253 nM | –
25 | UUUAUACAUGAGGAUCACCCAUGUCAAUGUAGUCGAGGAUAUGGGCAGCCGUGAGGCGUACUAGAAGGCGAAGAGG [JL-ss1-3.09 ViennaUCT mod] (puzzle: Same State 1) | – | 117 nM | – | – | – | –
26 | UCUUGGUUUUUGCUCGUUUUUUGUGUUGAACAUGAGGAUCACCCAUGUAUUGUACGGUCCAGUUUAAUAAUGGUCCA [JMF 6] (puzzle: Sensor for hsa-mir-208a) | 25.9 nM | 14.4 nM | 26 nM | – | – | –
27 | UGUUUGUUGUGAGGAUAUACAUACACCUUACAUGAGGAUCACCCAUGUUGUAAUUUUGAUAGUUAGUAGAAGGCACUUGGUUAU [JR_SSNG2_Sub045] (Eterna round: R96, puzzle: Same State NG 2) | – | – | – | 35.2 nM | 64.3 nM | 71.5 nM
28 | AAUAUUAAGGCGGACGUUAACCGCAACCGACAUGAGGAUCACCCAUGUGCUUCAAGCUCAGACAUCUCUUAUCGUCA [Arrizareat] (Eterna round: R96, puzzle: Sensor for hsa-mir-208a) | – | – | – | 84.3 nM | 59.4 nM | 79 nM
29 | UAAAGCAAGUCAGGAUAUGGGAAAGGAAGUGUACUAGAAGGGACUUGUAGGAACAUGAGGAUCACCCAUGUACCGCGGACUAAA [PowerStrip SSNG 1.7] (Eterna round: R96, puzzle: Same State NG 1) | – | – | – | 31.7 nM | 42.6 nM | 47.8 nM
30 | ACAUGAGAUAGAGGAUAUAUUGUACCUACAUGUGACAUGAGGAUCACCCAUGUGGUAAGUAUGACAUAGAAGGCUGAGAUAUGU [Equivalance 83 - Jieux - Same State NG 2] (Eterna round: R96, puzzle: Same State NG 2) | – | – | – | 69.8 nM | 67.5 nM | 77 nM
31 | CUGCUCGGGUGAGGAUAUGCCGCCGUUUCGGCUGCAGAAGGUGCUACGUUACAUGAGGAUCACCCAUGUCUCUGUUGUUUCGUG [salish99_SSNG1_r04_966] (Eterna round: R96, puzzle: Same State NG 1) | – | – | – | 108 nM | 60.7 nM | 76 nM
